Data: US20060270591A1 (published 2006)

B5: AR-N (aa 36-553), in vitro translated (receptor)
chain: NPGPRHPEAASAAPPGASLLLLQQQQQQQQQQQQQQQQQQQQQETSPRQQQQQQGEDGSPQAHRRGPTGYLVLDEEQQPSQPQSALECHPERGCVPEPGAAVAASKGLPQQLPAPPDEDDSAAPSTLSLLGPTFPGLSSCSADLKDILSEASTMQLLQQQQQEAVSEGSSSGRAREASGAPTSSKDNYLGGTSTISDNAKELCKAVSVSMGLGVEALEHLSPGEQLRGDCMYAPLLGVPPAVRPTPCAPLAECKGSLLDDSAGKSTEDTAEYSPFKGGYTKGLEGESLGCSGSAAAGSSGTLELPSTLSLYKSGALDEAAAYQSRDYYNFPLALAGPPPPPPPPHPHARIKLENPLDYGSAWAAAAAQCRYGDLASLHGAGAAGPGSGSPSAAASSSWHTLFTAEEGQLYGPCGGGGGGGGGGGGGGGGGGGGGGGGEAGAVAPYGYTRPPQGLAGQESDFTAPDVWYPGGMVSRVPYPSPTCVKSEMGPWMDSYSGPYGDMRLETARDHVLPIDYYF
modifications: [35S]-methionine-labeled
notes: also called AR N-terminal

Assays:
[1] = biological target: B5; assay: GST pull-down
Procedure: (§1) After several washes with NETN buffer [20 mM Tris/pH 8.0, 100 mM NaCl, 6 mM MgCL₂, 1.0 mM EDTA, 1.0 mM DTT, 0.5% (vol/vol) Nonidet P-40, 1 mM PMSF, and 8% glycerol], the bound proteins were separated on SDS-PAGE gel and visualized by PhosphorImager (Molecular Dynamics).
(§2) To confirm the interaction between ARA267 and AR that was shown in the yeast two-hybrid system, GST pull-down assay was applied to confirm and further map the interaction domains between ARA267 and AR.

[2] = biological target: T1, androgen receptor (AR), full-length, human (human, UniProt P10275 1-920); assay: cell-based or functional assay
T1 sequence: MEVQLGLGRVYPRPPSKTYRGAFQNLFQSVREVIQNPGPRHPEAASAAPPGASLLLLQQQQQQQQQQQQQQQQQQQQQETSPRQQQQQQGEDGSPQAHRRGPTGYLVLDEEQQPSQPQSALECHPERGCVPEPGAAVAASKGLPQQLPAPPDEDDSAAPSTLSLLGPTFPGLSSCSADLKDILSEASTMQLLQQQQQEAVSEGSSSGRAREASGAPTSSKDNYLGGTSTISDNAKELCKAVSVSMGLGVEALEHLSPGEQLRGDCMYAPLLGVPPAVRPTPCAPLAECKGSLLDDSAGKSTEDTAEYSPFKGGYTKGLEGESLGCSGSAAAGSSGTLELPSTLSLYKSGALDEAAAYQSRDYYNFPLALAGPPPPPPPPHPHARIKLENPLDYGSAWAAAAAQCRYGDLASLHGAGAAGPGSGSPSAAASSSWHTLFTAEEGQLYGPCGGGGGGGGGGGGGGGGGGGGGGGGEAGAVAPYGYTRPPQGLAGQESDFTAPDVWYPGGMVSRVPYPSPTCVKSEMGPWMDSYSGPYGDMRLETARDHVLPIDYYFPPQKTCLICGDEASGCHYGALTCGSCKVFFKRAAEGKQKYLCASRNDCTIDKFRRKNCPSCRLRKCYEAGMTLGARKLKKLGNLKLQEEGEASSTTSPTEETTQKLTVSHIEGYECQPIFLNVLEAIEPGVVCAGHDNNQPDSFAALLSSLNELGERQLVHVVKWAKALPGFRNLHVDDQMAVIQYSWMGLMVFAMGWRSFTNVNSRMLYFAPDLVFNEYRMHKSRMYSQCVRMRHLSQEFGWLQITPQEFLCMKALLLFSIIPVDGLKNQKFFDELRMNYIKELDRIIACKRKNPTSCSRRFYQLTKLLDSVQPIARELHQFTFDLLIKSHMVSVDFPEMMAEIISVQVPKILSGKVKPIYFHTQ

[3] = biological target: T2, GAL4 DBD fused with C-terminal fragment (aa 595-918) of wild-type AR (human, UniProt P04386 1-147 (Saccharomyces cerevisiae entry)); assay: yeast two-hybrid
T2 construct: range 1-147; also called pAS2-AR; pAS2-wtAR

[4] = biological target: T3, GAL4 DBD fused with C-terminal fragment (aa 595-918) of mARt877s (human, UniProt P04386 1-147 (Saccharomyces cerevisiae entry)); assay: yeast two-hybrid screen of prostate cDNA library
T3 construct: range 1-147; Yeast two-hybrid bait; the text also writes t877a in places; also called pAS2-mtARt877s; mtARt877s

[5] = biological target: T4, GAL4 empty vector (GAL4 DBD alone) (UniProt P04386 1-147); assay: mammalian two-hybrid, DU145, CAT
T4 construct: range 1-147; Control

[6] = biological target: T5, GST-ARA267C (ARA267 aa 1716-2427) (human, UniProt Q96L73 1985-2696); assay: GST pull-down
T5 sequence: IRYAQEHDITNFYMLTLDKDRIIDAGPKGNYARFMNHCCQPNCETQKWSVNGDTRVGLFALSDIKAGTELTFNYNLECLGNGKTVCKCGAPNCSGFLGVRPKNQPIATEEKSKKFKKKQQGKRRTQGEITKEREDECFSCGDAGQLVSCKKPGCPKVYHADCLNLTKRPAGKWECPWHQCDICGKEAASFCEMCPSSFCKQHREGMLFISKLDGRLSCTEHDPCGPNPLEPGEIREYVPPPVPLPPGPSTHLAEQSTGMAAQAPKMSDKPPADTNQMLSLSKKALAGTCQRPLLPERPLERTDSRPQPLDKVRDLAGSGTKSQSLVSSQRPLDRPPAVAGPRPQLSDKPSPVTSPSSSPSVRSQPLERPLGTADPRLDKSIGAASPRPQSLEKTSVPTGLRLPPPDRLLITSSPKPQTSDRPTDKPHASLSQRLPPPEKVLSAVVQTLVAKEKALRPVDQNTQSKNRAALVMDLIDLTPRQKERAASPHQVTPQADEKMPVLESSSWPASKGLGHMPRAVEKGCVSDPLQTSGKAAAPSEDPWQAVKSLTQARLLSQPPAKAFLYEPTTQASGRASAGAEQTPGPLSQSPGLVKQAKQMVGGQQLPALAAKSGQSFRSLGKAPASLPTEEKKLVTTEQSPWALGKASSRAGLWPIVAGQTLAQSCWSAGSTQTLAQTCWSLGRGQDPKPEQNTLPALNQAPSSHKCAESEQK
Procedure: as §1, §2

[7] = biological target: T6, GST-ARA267N2 (ARA267 aa 1-984) (human, UniProt Q96L73 280-1253); assay: GST pull-down
T6 sequence: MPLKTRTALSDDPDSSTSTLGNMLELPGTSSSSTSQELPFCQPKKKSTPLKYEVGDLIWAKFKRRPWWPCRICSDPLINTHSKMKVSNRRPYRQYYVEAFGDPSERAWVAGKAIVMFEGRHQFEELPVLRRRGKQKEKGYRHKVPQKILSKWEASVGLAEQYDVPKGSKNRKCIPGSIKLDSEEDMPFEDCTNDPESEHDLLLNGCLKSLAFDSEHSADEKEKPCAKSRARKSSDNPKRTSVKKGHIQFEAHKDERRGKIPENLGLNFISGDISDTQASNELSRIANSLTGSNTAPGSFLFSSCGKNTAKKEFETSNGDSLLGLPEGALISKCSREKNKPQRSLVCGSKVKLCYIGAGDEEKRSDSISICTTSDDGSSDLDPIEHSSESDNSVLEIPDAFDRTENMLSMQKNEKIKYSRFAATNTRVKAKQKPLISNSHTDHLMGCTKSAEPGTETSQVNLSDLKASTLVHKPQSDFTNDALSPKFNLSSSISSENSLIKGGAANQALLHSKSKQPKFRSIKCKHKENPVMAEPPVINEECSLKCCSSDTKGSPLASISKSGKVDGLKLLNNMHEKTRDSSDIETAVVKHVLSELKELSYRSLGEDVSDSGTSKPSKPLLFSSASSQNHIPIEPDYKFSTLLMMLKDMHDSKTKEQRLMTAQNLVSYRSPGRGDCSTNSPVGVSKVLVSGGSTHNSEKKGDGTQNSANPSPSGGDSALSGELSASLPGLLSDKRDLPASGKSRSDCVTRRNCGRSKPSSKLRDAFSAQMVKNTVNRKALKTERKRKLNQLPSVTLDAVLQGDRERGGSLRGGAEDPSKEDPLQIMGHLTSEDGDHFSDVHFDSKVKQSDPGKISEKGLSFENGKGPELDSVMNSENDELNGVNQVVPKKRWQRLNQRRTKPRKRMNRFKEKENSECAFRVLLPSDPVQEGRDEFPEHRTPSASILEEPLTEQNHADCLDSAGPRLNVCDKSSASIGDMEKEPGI
Procedure: as §1, §2

B1: GST-ARA267N1 (ARA267 aa 1-382) (other, not shown: a dimerising Fc or GST)
chain: MPLKTRTALSDDPDSSTSTLGNMLELPGTSSSSTSQELPFCQPKKKSTPLKYEVGDLIWAKFKRRPWWPCRICSDPLINTHSKMKVSNRRPYRQYYVEAFGDPSERAWVAGKAIVMFEGRHQFEELPVLRRRGKQKEKGYRHKVPQKILSKWEASVGLAEQYDVPKGSKNRKCIPGSIKLDSEEDMPFEDCTNDPESEHDLLLNGCLKSLAFDSEHSADEKEKPCAKSRARKSSDNPKRTSVKKGHIQFEAHKDERRGKIPENLGLNFISGDISDTQASNELSRIANSLTGSNTAPGSFLFSSCGKNTAKKEFETSNGDSLLGLPEGALISKCSREKNKPQRSLVCGSKVKLCYIGAGDEEKRSDSISICTTSDDGSSDLDP
[1]
  binding result: no binding

B2: ARA70N (aa 1-401) with wild-type FXXLF, expressed from pSG5 (other)
chain: MNTFQDQSGSSSNREPLLRCSDARRDLELAIGGVLRAEQQIKDNLREVKAQIHSCISRHLECLRSREVWLYEQVDLIYQLKEETLQQQAQQLYSLLGQFNCLTHQLECTQNKDLANQVSVCLERLGSLTLKPEDSTVLLFEADTITLRQTITTFGSLKTIQIPEHLMAHASSANIGPFLEKRGCISMPEQKSASGIVAVPFSEWLLGSKPASGYQAPYIPSTDPQDWLTQKQTLENSQTSSRACNFFNNVGGNLKGLENWLLKSEKSSYQKCNSHSTTSSFSIEMEKVGDQELPDQDEMDLSDWLVTPQESHKLRKPENGSRETSEKFKLLFQSYNVNDWLVKTDSCTNCQGNQPKGVEIENLGNLKCLNDHLEAKKPLSTPSMVTEDWLVQNHQDPCKVE
[2]
  AR transactivation (MMTV-LUC, COS-1, 10 nM T): 310 fold

B3: GAL4 AD fused C-terminal region of ARA54 (C'-ARA54, amino acids 361-474) (other)
chain: ANFNQSGNIADSSLSFTFTNSSNGPNLITTQTNSQALSQPIASSNVHDNFMNNEITASKIDDGNNSKPLSPGWTDQTAYNAFGITTGMFNTTTMDDVYNYLFDDEDTPPNPKKERNEYLQADEANKRLLDQRYGKRVIQKALEEMESKEWLEKNSKSCPCCGTPIEKLDGCNKMTCTGCMQYFCWICMGSLSRANPYKHFNDPGSPCFNRLFYAVDVDDDIWEDEVED
notes: range 768-881; Clone from the prostate cDNA library; also called pACT2-C'-ARA54
[3]
  binding result: binds
[4]
  binding result: binds

B4: VP16 AD fused full-length ARA55 (other)
chain: MPRSGAPKERPAEPLTPPPSYGHQPTGQSGESSGASGDKDHLYSTVCKPRSPKPAAPAAPPFSSSSGVLGTGLCELDRLLQELNATQFNITDEIMSQFPSSKVASGEQKEDQSEDKKRPSLPSSPSPGLPKASATSATLELDRLMASLPDFRVQNHLPASGPTQPPVVSSTNEGSPSPPEPTAKGSLDTMLGLLQSDLSRRGVPTQAKGLCGSCNKPIAGQVVTALGRAWHPEHFVCGGCSTALGGSSFFEKDGAPFCPECYFERFSPRCGFCNQPIRHKMVTALGTHWHPEHFCCVSCGEPFGDEGFHEREGRPYCRRDFLQLFAPRCQGCQGPILDNYISALSLLWHPDCFVCRECFAPFSGGSFFEHEGRPLCENHFHARRGSLCPTCGLPVTGRCVSALGRRFHPDHFACTFCLRPLTKGSFQERAGKPYCQPCFLKLFG
notes: also called VP16-ARA55
[5]
  binding result: no binding

## B5
[6]
  binding result: no binding
[7]
  binding result: no binding
